# Laboratory results from US8058396B2, “Cystatin C as an antagonist of TGF-β and methods related thereto” (National Jewish Health, priority 2003, dated 2011).
# Where a SMILES comes first, the peptide text is derived from it.
# B1: recombinant Jun(1-79): recombinant GST-Jun(1-79) fusion protein, control in the TGF-β1 binding assay (protein)
# chain: MTAKMETTFYDDALNASFLPSESGPYGYSNPKILKQSMTLNLADPVGSLKPHLRAKNSDLLTSPDVGLLKLASPELERL
# modifications: left off: a dimerising Fc or GST
# B2: recombinant Δ14CystC: GST-CystC fusion protein with residues 80-93 deleted by site-directed mutagenesis, purified from E. coli (protein)
# chain: MAGPLRAPLLLLAILAVALAVSPAAGSSPGKPPRLVGGPMDASVEEEGVRRALDFAVGEYNKASNDMYHSRALQVVRARLGRTTCTKTQPNLDNCPFHDQPHLKRKAFCSFQIYAVPWQGTMTLSKSTCQDA
# modifications: left off: small tags and cut ends
# notes: GST-CystC fusion protein with residues 80-93 deleted by site-directed mutagenesis, purified from E. coli
# Columns and labels:
# [1] = test system: HT1080 fibrosarcoma cells; experiment: HT1080 cell invasion through Matrigel matrices; format: cell-based, human; details: treatment of HT1080 cells with inhibitor
# Experimental: (§1) The effect CystC and D14CystC on the invasion of HT1080 and 3T3-L1 cells was determined as described previously (42). Briefly, upper chambers were coated with 100 μl of diluted Matrigel (1:50 in serum-free media), which was allowed to evaporate to dryness overnight at room temperature. The following morning the Matrigel mixtures were rehydrated and subsequently cultured with control-, CystC-, or D14CystC-expressing HT1080 or 3T3-L1 cells at a density of 100,000 cells/chamber. Cellular invasion was stimulated by addition of 2% serum to the lower chambers. Forty-eight hr later, the cells were washed twice in ice-cold PBS and immediately fixed for 15 min with 95% ethanol. Cells remaining in the upper chambers were removed with a cotton swab, whereas those remaining in the lower chamber were stained with crystal violet. Quantifying invading cells was determined through two independent measures, which yielded identical results: (i) manual counting under a light microscope, and (ii) crystal violet dye extraction by incubation of the membranes in 10% acetic acid, followed by spectrophotometry at 590 nm.
# Cathepsin B is a lysosomal cysteine proteinase that functions in intracellular protein catabolism, as well as in bone resorption, hormone activation, and antigen processing (5). During tumorigenesis, cancer cells express a cathepsin B splice variant whose protein product is secreted into the extracellular milieu (5) and localized to the leading edge of invasive tumors (19), thereby promoting cancer cell invasion and metastasis. However, recent evidence has questioned the role of intracellular versus extracellular cathepsin B in promoting cancer cell invasion (20). To distinguish between these two possibilities, human HT1080 fibrosarcoma cells that stably express the murine ecotropic receptor (21) were infected with control (i.e., GFP), CystC, or Δ14CystC retrovirus. Afterward, cells that expressed GFP were isolated by flow cytometry to establish stable polyclonal populations of control-, CystC-, and Δ14CystC-expressing HT1080 cells (data not shown). The inventor chose to study HT1080 cells because they are highly invasive, and because they express large quantities of secreted cathepsin B and comparably little CystC (22). Thus, if extracellular cathepsin B mediates HT1080 cell invasion, it was hypothesized that overexpression of secreted CystC would attenuate their invasion through synthetic basement membranes.
# Briefly, GFP-, CystC-, or Δ14CystC-expressing HT0180 cells were allowed to invade through Matrigel-coated membranes for 48 hr. Data shown in FIG. 1A are the mean (±SE) of three (Δ14CystC) and nine (GFP and CystC) independent experiments presented as the percent invasion relative to GFP-expressing HT1080 cells (***, p<0.05; Student's T-Test).
# [2] = test system: TGF-β receptors (TβR-I, TβR-II, TβR-III); experiment: Iodinated TGF-β1 radioligand binding and cross-linking assay on Mv1Lu cells; parameters: species or system mink; details: [125I]TGF-β1 200 pM, recombinant protein 0-10 μg/ml, 3 hr at 4° C.
# Experimental: Mink lung Mv1Lu epithelial cells were plated onto 6-well plates and grown until 90% confluency. The radioligand binding and cross-linking of iodinated TGF-β1 (200 pM) to Mv1Lu cells in the absence or presence of increasing concentration of recombinant GST-Jun(1-79) or -CystC was performed as described previously (44). Afterward, cytokine:receptor complexes contained in detergent-solubilized whole cell extracts were isolated by immunoprecipitation with anti-TβR-II antibodies as described previously (44). TGF-β1 bound to cell surface TβR-I, TβR-II, and TβR-III was visualized by exposure of the dried gels to a phosphor screen, which were developed 1-3 d later on a Molecular Dynamic Typhoon Scanner. Total bound TGF-β1 was defined as the sum of signal intensities for TGF-β1 cross-linked to TβR-I, TβR-II, and TβR-III in each condition.
# Mink lung Mv1Lu epithelial cells were incubated for 3 hr at 4° C. with [125I]TGF-β1 (200 pM) in the absence or presence of increasing concentrations (0-10 μg/ml; 0, 0.5, 1, 5, 10) of recombinant Jun(1-79) or CystC. Cytokine:receptor complexes were cross-linked by addition of disuccinimidyl suberate, and subsequently isolated from detergent-solubilized whole cell extracts by immunoprecipitation with anti-TβR-II antibodies. […]
# 3T3-L1 fibroblasts = experiment: 3T3-L1 cell invasion through Matrigel matrices; format: cell-based, murine; details: recombinant protein 10 mg/ml; TGF-β1 5 ng/ml; 48 hr
# Experimental: as §1
# In some experiments, the effects of recombinant CystC and D14CystC on 3T3-L1 cell invasion was examined. To do so, 3T3-L1 cells (100,000 cells/chamber) were allowed to invade through Matrigel […], together with or without 5 ng/ml of TGF-β1. All subsequent procedures were performed as described above.
# GFP-, CystC-, or Δ14CystC-expressing 3T3-L1 cells were allowed to invade through Matrigel-coated filters in the absence or presence of TGF-β1 (5 ng/ml) for 48 hr, and the results are shown in FIG. 2A. […] Data are the mean (±SE) of four independent experiments presented as the percent invasion relative to GFP-expressing 3T3-L1 cells.
# Moreover, the inhibitory effects of CystC on 3T3-L1 cell invasion could be recapitulated by addition of recombinant CystC fusion proteins. Control or TGF-β1-stimulated (5 ng/ml) 3T3-L1 cells were allowed to invade through Matrigel-coated filters for 48 hr in the absence or presence of recombinant (10 mg/ml) GST, GST-CystC, or GST-D14CystC as indicated in FIG. 2B. […] Data are the mean (±SE) of three independent experiments presented as the percent invasion relative to untreated 3T3-L1 cells. […] Collectively, these findings indicate that 3T3-L1 cell invasion proceeds through cathepsin B-dependent and TGF-β-dependent pathways.
# TGF-β signaling = experiment: p3TP-luciferase reporter gene assay in 3T3-L1 cells; format: cell-based, murine; details: recombinant protein 10 mg/ml; TGF-β1 5 ng/ml; 3T3-L1 cells; p<0.05
# Experimental: Analysis of luciferase activity driven by the synthetic p3TP reporter ((26); generously provided by Dr. Joan Massague, Sloan Kettering) was performed as described previously (42). Briefly, control, CystC-, or Δ14CystC-expressing 3T3-L1 or HT1080 cells were cultured onto 24-well plates at a density of 45,000 cells/well and allowed to adhere overnight. The cells were transiently transfected the following morning by overnight exposure to LT1 liposomes (Mirus) containing 300 ng/well p3TP-luciferase and 100 ng/well of pCMV-β-gal. Afterward, the cells were washed twice with PBS and stimulated overnight in serum-free media with increasing concentrations of TGF-β1 as indicated. The following morning, luciferase and β-gal activities contained in detergent-solubilized cell extracts were determined.
# In some experiments, the effects of recombinant CystC and D14CystC on p3TP-luciferase activity 3T3-L1 cells was determined. […] All subsequent procedures were performed as described above.
# The present inventor's findings that TGF-β signaling was inhibited by CystC (FIGS. 1 and 2) independent of its actions on cathepsin B lead them to hypothesize CystC as a general antagonist of TGF-β signaling. To test this hypothesis, changes in p3TP-driven luciferase activity were monitored in control, CystC-, Δ14CystC-expressing cells before and after their stimulation with TGF-β. Briefly, GFP-, CystC-, or Δ14CystC-expressing 3T3-L1 cells were transiently transfected with p3TP-luciferase and pCMV-β-gal, and subsequently stimulated with increasing concentrations of TGF-β1 (0-5 ng/ml) as indicated in FIG. 3A. Afterward, luciferase and β-gal activities contained in detergent-solubilized cell extracts were measured. […] Data are the mean (±SE) luciferase activities of four independent experiments normalized to untreated GFP-expressing cells.
# The transfectants were then stimulated with TGF-β1 (5 ng/ml) in the absence or presence of recombinant (10 mg/ml) GST, GST-CystC, or GST-D14CystC as indicated in FIG. 3B. […]
# [3] = test system: NMuMG mammary epithelial cells; experiment: TGF-β-stimulated actin cytoskeletal reorganization (EMT) in NMuMG cells, rhodamine-phalloidin immunofluorescence; format: cell-based, murine; details: recombinant protein treatment 10 μg/ml; TGF-β1 5 ng/ml; NMuMG cells
# Experimental: (§2) The ability of TGF-β to alter actin cytoskeletal architecture and E-cadherin expression was monitored essentially as described (Piek et al., 1999). Briefly, control-, CystC-, or Δ14CystC-expressing NMuMG cells were allowed to adhere overnight to glass coverslips in 24-well plates (50,000 cells/well). The cells were stimulated the following day with TGF-β1 (5 ng/ml) for 0-36 hours at 37° C. In some experiments, control NMuMG cells were stimulated with TGF-β1 in the absence or presence of 10 μg/ml of recombinant GST, GST-CystC, or GST-Δ14CystC. Upon completion of agonist stimulation, the cells were washed in ice-cold PBS and immediately fixed in 3.7% formaldehyde. After extensive washing in PBS, the cells were blocked in PBS supplemented with 1.5% FBS, followed by incubation with rhodamine-phalloidin (0.25 μM). […]
# (§3) To test this hypothesis, the inventor first examined whether CystC and a CystC mutant impaired in its ability to inhibit cathepsin protease activity (i.e., Δ14CystC) could antagonize TGF-β stimulation of EMT in MECs. […] TGF-β stimulation of EMT is studied routinely in murine NMuMG MECs, which readily undergo EMT when treated with TGF-β (Piek et al., 1999; Miettinen et al., 1994; Gotzmann et al., 2004). […] E-cadherin expression was monitored by indirect immunofluorescence with anti-E-cadherin antibodies.
# In another experiment, NMuMG cells were infected with ecotropic retrovirus encoding either GFP (i.e., control), CystC, or Δ14CystC, and subsequently were isolated by FACS-sorting for GFP expression to yield stable polyclonal populations of control, CystC, and Δ14CystC-expressing cells. The expression and secretion of recombinant CystC proteins by infected NMuMG and NRK cells was monitored by immunoblotting conditioned-media with anti-CystC antibodies. […] Next, the control, CystC-, and Δ14CystC-expressing NMuMG cells were incubated in the absence or presence of TGF-β1 (5 ng/ml) for 36 hours, whereupon E-cadherin expression was monitored by immunoblotting with anti-E-Cadherin antibodies. […]
# [4] = test system: NMuMG mammary epithelial cells; experiment: TGF-β-mediated downregulation of E-cadherin in NMuMG cells; format: cell-based, murine; details: recombinant protein treatment 10 μg/ml; TGF-β1 5 ng/ml, 36 hours; NMuMG cells
# Experimental: as §2
# The ability of TGF-β to alter E-cadherin expression also was monitored by immunoprecipitating E-cadherin from Buffer H/1% Triton X-100-solubilized (Schiemann et al., 2003) NMuMG whole cell extracts, followed by immunoblotting with anti-E-cadherin antibodies (1:1000 dilution).
# as §3
# In another experiment, NMuMG cells were infected with ecotropic retrovirus encoding either GFP (i.e., control), CystC, or Δ14CystC, and subsequently were isolated by FACS-sorting for GFP expression to yield stable polyclonal populations of control, CystC, and Δ14CystC-expressing cells. The expression and secretion of recombinant CystC proteins by infected NMuMG and NRK cells was monitored by immunoblotting conditioned-media with anti-CystC antibodies. […]
molecule,measurement,setting,value
"CCCNC(=O)[C@H]1O[C@@H]1C(=O)N[C@H](C(=O)N1CCC[C@H]1C(=O)OC)[C@@H](C)CC [CA-074ME, reference compound]",HT1080 cell invasiveness,[1]; n=3,101.0±5.6 % of control
"CC(=O)N[C@@H](CC(C)C)C(=O)N[C@H](C(=O)N[C@H](C=O)CCCCN)C(C)C [cathepsin B inhibitor II, reference compound] (Ac-Leu-Val-Lys-aldehyde)",reduction of HT1080 cell invasion through Matrigel matrices,"[1]; n=3, p<0.05",47.1±8.5%
B1,binding of iodinated TGF-β1 to its cell surface receptors,[2],no effect
B2,3T3-L1 cell invasion stimulated by serum:TGF-β,3T3-L1 fibroblasts,selectively blocked
same,luciferase activity stimulated by TGF-β (p3TP),TGF-β signaling,significantly inhibited
same,actin cytoskeletal reorganization stimulated by TGF-β,[3],prevented
same,TGF-β-mediated downregulation of E-cadherin,[4],antagonized
